From the DeepSol protein solubility set come the findings set out here.

The series in a line: soluble on expression in E. coli; label from the status in PepcDB or PDB records.
As for “MPFDFETVLNRRHTNAVKWDVADDELPMWVADMDFETAPVIKQALIKRAQFGVFGYEEVPMAYYEAVADWWATEHNFRPQIEWLMFCTGVVPAISSIVRKMTAAGDNVLVQAPVYNIFYHSIENNGRHTLSSDLVARDASYAIDWDDLTKKLADPLTTMMILCNPQNPIGVVWSRATLQRLGELCLKYHVLVVADEIHCDLTLNGNAYTPFSSLTAPVAHNSISCISPSKTFNVAALHAATLIIPDAHVRALVSRGINNDELAEPNSFAIPASIAAYTEGHDWVAALRTKLAANQRQVQTYLTAELPQVKLVEAQATYLLWLDVSQVTTDSAALAAFIRQRTGLFLSAGDVYRGDGNRFLRLNVACPTTTLTDGLARLKAGITAYQQVQA”, the “soluble on expression in E. coli” value was “not soluble”.

On to “MSNWGDYQLGGLAPPTEPWLAIRPFLQLPHDFKIVFLSIERGLTRKNDFKTVRQLQKWAYCKPRFCGRGQSPELVIPPVGHPPSSSGLIVKIKQMIRSCVRLASQSTNKLLIFSSLSRNSQLYISMSSSDLGRGFKQGRGTGDSGQSSLYNNERRWKDDDTFNALGATDELSSFLGVCGASAQNDGSMSDVVETLTRLQCCLQDVGAHLATPPKNSSERKQKKTAFDIAMVEWINAEIDRYGDALPAIRQFILSGGGMTSAQLQYSRAICRRAERSIVPLMRDEDVDPMALKFLNRMSDLLFVLGRTACMRNKNEELTYLRPDSFTNLKWDRKSLHEKK”, for which the “soluble on expression in E. coli” value was “not soluble”.

For “MAHHHHHHMFNEAAVPFIQTARDNGLLFGGSDAPAMIDYTSEHGKSYHVRGSIFEVAPHFEVLNGIGYGAYGVVCAAVDLRLVASSVYYNEAMRTIEEEGRIVTRQRRGHDAPVYFRTRAVLDEAGRGGPVRVPHLYSEPFKRRTLARGEVSPFVAIKKVTKVFDDLVDGRRILREIKLLRYLQGHPNIVRLMEVGRPPAPTGASSSAAFDDIYLVTDLMDTDLGALLRSSQEIAMDQLRFIAYQLMKVLVYVHSSGVIHRDLKPGNILLNGNCDMKLCDFGLSRGGVPAWPHERTLTAVATAAESSAKELEDWGLFCWSSSAARGASSAPHAAKQPPLYSLTDYVVTRYYRAPELLIMGRYNHAIDMWSAGCILAEMVLRRPLFTGANYLSQLALILETPGLRGVPQTPEEAAALFEGGEEGKHFINDILFHKTARRRDPLTLSDQVHSQVLFHSTLFGFKVDVPISLGILIAKLLSFDPRKRPTALEALRDPFFWPLYDSRDEILRCPASDPSVAREQIDDIAAYQKAHPCVVVDESPVFTWEFDHRITSAQALRGLFEEECQISRDVQQQLERQQRLRSSPVVKCSERRTLERSLFSGASDGSSGGDGAH”, the “soluble on expression in E. coli” value was “not soluble”.

“SLEKELKVITIDELKKYIRNNEEDKIEEVDVVTSATCGIMSGTAGIFHIPFNEVFKRAEEIYLNDIKGVVGICPNEFLGKVDAIFYGEVGFLFKDLVKGKVVEAKAISEGKIYKNEITIDDLPTAKMIGTRMAFKNYTAITNLSDEEVNTIFHRLPLKKGEASFSGCGMLNPLENMVIKDEKDVVGKKALLNGAEAIILGFGTRASIEKPNLMMSADMKDMDAYYLGGFVTSNGIEIYNTIAVPIKVDEHKEALKKLDKDITLPLVNIFGREIIDIGSYAEVWENVDLRPKIYQDKCKNCRECLVEKYCPTFAIKRENGKIKITEDCFGCGVCNICPYGVFKTKLGSVCGIPITCRQSDRKRALKLAKELKKKIERGEFKI”: the “soluble on expression in E. coli” value was “not soluble”.

Turning to “RMEMVEIGGIQQALYIRGQNADNPIILWVHGGPGNSMMPFLHLYQYEWENDFTVVNWDQRNVGKTYFANDPAAVLQTMSAERVLQDVHEVTAYLKQEFNKEKIILIGHSWGTVLGTMAVQTYPEDYSAYIGIAQTVNMVDNERVGYEKTLEMVKAAGKQKDIKALEAIAPYPPAKYGPSYLAALMTVRTYQSKYGLSINMDLGNIISILATPYYSLRELKNTAIFNPNAIDNQGDVLRFLVEEADIRNYGVDYQVPVYYIMGENDYNSPYLPAKKFFDEIVAPDKQIFFIPDADHLPFLSKKAEFDCVLLE”, the “soluble on expression in E. coli” value is given as “not soluble”.

In the case of “MSIAIKDDDEFKTIFAEKKTQPVILFFTASWCGPCQMIKPRVEELAAEHKDRLSILKIDVDECDGVGEEYEINSMPTFLLIVDGIKKDQFSGANNTKFEEMVKAALQ”, the “soluble on expression in E. coli” value is “not soluble”.

Turning to “MSFLSNSLNRISFNSFSNMHSLLSSKFQEHYNDIYDWNGNIENIYKANTFISIGYKLLYPLGVLEANFDKEKLKKFLFRICSYYNDIPYHTSLHAAQVAHFSKSMLFMLDMNHKISAIDEFCLHISSLCHDTGHPGLNNYFLINSENNLALTYNDNSVLENYHCSLLFKTLKNPNYNIFEHYPYHIFISCKKNIIKAILSTDMKNHFEYISDFRTSKEFIDYDNLSNDQIWQIFCLILKASDIGHSTLEWNKHLEWTLKINEEFYLQGLLEKSLNIQNSFLCDINTMNKLALSQIDFLKHLCIPLFNELNYICKNNDVYTHCIQPIENNIERWESHKNDNQNLGLHEKYKEENLLSKLELIKFE”, the “soluble on expression in E. coli” value is recorded as “not soluble”.

“MGHHHHHHGGHMSLSNEVERVYPRLLDFVRKKYVSKNLLRVTLTGEDLIGFPEDQNGSHIKVFFPNQASGILQLPIREGDKVIWPEHKPVPRAYTVRQYRAQSNELDIDFVVHGEGTPGGGWALKAQTGSQLGLIGPGGPDPLIEPADWHIMAGDLSAVPAISAILEKMPSQAKGYVFLEVDDIEDKHDISHPEQMVIKWLVRDPNQAQPVLAMAIEQLPVPQGAESLSAFVAGENESVIACRKILRNEYRIARDKIYAIPYWKRGKNEEAYHEERHVVMDEEFEGGS”: the “soluble on expression in E. coli” value was “soluble”.

On to “MSEAWITLATNDNYAQGALVLVHSLRTAGTTRKIHCLISNEVSAPVRKQLEEHFDDVSIVDVFNSNDSDNLRLIERPDLGVTFTKLHCWRLTQYTKCVFLDADTLVLRNADELFTRPDFSAASDIGWPDSFNSGVFVYVPNNETYRQLVDFAVTHGSYDGGDQGLLNDFFSNWRDLPSEHRLPFIYNMTAGAFYTYAAAYKRYGANTKIVHFIGSVKPWHGSAAVHTGEHFQQWQKIYHAHVNHTSRTNEHAAVFPSHHHTPEHRSHSADHPKIERKDSIVREIGNFVMHVVQSVNILPSYDTDANTSDSHRNNEPHKHDQQREEHHELPHNKFQTPHEESQDIVGSTDCFGSQMPKYNADSETDREVEQITNNTPCPAFVPFERREEYQAASPSTEERRAAWEAGQPDYLGRDAFVHIQEALNRALNE”, for which the “soluble on expression in E. coli” value is “not soluble”.

“MQAQNMTEASTVHVEHDPVRQRFNVDTDGHRAELAYRREGEIMTITHTQVPDAVSGRGIAAALVEDALAFARQHGLKVVPACRYADAYVRRHPRYQDLLAMAGDPLEHHHHHH”: the “soluble on expression in E. coli” value is recorded as “not soluble”.

Take “KMLDEKFYSKLLGEELDLIICLPPDFSPLYKYPLFIVQDGKDYFQFGKLARHSEELAVNEQIQKAIFIGIPYKTVMDRREKYHPDGEQNEAYIRFLAFELVPYLEERFPSFQMPTSRFL”: the “soluble on expression in E. coli” value is recorded as “not soluble”.

For the sequence “QAVVTQESALTTSPGETVTLTCRSSTGAVTTSNYANWVQEKPDHLFTGLIGGTNKRAPGVPARFSGSLIGDKAALTITGAQTEDEAIYFCALWDSNHLVFGGGTKLTVLGQPKSSPSVTLFPPSSEELETNKATLVCTITDFYPGVVTVDWKVDGTPVTQGMETTQPSKQSNNKYMASSYLTLTARAWERHSSYSCQVTHEGHTVEKSLSPADC”, the “soluble on expression in E. coli” value is listed as “soluble”.

Take “MGSDKIHHHHHHMNRRDLLVGLGAATLVPKASWADAHNPAFLSAAQAPDGNYHLCGLDPRGDVVFSIPLPGRGHAAAAHPTRPEAVAFARRPGRFALILDCVTGQETARLLPPPNRHFYGHGTFSSDGDVLFTTENDLTTLEGRIGLWDAAHGYVRLGDVPSGGIGPHDIARLPGTETLVIANGGIATHPDSGRTPLNPATMRSNLAYMRTDGTLLERVELDVTLRQNSIRHLSIRDDGLVSAGMQWNGAEGEHPPLTLLHRIGAAPRLLAAPTQTHRQLDGYVGSISFDQAGAHVAVTSPRGGTVHIFDVNSGAFAGLITAEDICGLALSHRAGLIATTGQGITGFVAQDDLTQMRHSSWRWDNHIVAI”: the “soluble on expression in E. coli” value is “not soluble”.
